Data from publication PMC8666670 (2021).

Molecular target: GlmU, glucosamine-1-phosphate N-acetyl transferase/N-acetyl-glucosamine-1-phosphate uridylyltransferase of E. … (E. coli, UniProt P0ACC7 1-456)
Assay: SPR

Sequence of GlmU, glucosamine-1-phosphate N-acetyl transferase/N-acetyl-glucosamine-1-phosphate uridylyltransferase of E. … (P0ACC7 whole entry): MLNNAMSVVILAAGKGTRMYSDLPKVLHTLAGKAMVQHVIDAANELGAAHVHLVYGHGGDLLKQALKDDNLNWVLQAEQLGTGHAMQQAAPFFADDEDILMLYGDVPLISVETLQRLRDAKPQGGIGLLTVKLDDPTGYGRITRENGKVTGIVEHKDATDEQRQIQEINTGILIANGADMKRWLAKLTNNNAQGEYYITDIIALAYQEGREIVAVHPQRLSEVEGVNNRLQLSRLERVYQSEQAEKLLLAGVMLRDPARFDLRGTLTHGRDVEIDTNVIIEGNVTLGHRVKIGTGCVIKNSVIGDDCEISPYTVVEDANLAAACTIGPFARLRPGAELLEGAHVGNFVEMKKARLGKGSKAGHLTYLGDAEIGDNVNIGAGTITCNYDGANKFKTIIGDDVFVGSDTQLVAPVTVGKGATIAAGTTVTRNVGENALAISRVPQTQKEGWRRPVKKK

B1: acetyl-acyl carrier protein (acetyl-ACP) (natural protein)
chain: MSTIEERVKKIIGEQLGVKQEEVTNNASFVEDLGADSLDTVELVMALEEEFDTEIPDEEAEKITTVQAAIDYINGHQA
modifications: prosthetic group with attached acetyl chain (acetyl thioester), made from apo-ACP and acetyl-CoA with [ACP]synthase
Q: With B1 as the binder, how does the Kd read?
A: 82.5 µM
